Reference: patent US20240115497A1, “INHALABLE PHARMACEUTICAL POWDER FORMULATION AND PREPARATION METHOD THEREFOR” (ZHEJIANG CUIZE PHARMACEUTICAL TECHNOLOGY CO., LTD., priority 2021, published 2024)

Experiments:
[1] = Specific surface area by inverse gas chromatography-surface energy analyzer; format: physicochemical
Excerpt: The specific surface areas of the bulk drug semaglutide, excipient leucine and powder formulation were respectively detected by an inverse gas chromatography-surface energy analyzer.

[2] = injectable and oral formulations; cited from earlier work

Compound: CC(C)C[C@H](N)C(=O)O [Excipient leucine, leucine]
- Specific surface area [1]: 0.506 m^2/g

Compound: Semaglutide [Bulk drug semaglutide]
- Specific surface area [1]: 1.816 m^2/g
- bioavailability [2]: about 1%
